In this experiment the target is T1, His-PIF1 (Arabidopsis thaliana, UniProt Q8GZM7 1-478).
T1 construct: also called His-tagged PIF1; source: E. coli Transetta (DE3), purified (Ni-NTA agarose)
T1 sequence (looked up): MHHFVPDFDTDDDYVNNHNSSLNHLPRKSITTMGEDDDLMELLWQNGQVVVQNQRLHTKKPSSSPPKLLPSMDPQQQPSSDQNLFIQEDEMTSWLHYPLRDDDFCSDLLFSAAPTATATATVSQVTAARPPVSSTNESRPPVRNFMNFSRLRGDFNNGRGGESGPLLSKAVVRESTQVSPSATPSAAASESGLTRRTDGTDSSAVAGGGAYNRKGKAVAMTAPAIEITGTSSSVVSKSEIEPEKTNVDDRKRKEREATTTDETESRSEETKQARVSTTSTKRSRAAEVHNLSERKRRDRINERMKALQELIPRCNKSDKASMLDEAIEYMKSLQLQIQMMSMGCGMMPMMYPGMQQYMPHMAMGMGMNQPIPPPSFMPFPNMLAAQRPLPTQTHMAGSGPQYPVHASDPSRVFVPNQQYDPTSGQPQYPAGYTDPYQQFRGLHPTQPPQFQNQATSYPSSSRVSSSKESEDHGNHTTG
The experiment can be described thus: pull-down; MBP or MBP-IAA3 held on amylose resin, His-PIF1 or His-PIF4 added, 3 h at 4°C; 50 mM Tris-Cl pH 8.0, 150 mM NaCl, 10% glycerol, 0.5 mM EDTA, 0.1% Triton X-100, 5 mM β-mercaptoethanol; five washes; blots with anti-MBP and anti-His. To be noted: both partners purified.

B1: MBP-IAA3 (natural protein, Arabidopsis thaliana, UniProt Q38822 1-189, looked up)
chain: MDEFVNLKETELRLGLPGTDNVCEAKERVSCCNNNNKRVLSTDTEKEIESSSRKTETSPPRKAQIVGWPPVRSYRKNNIQSKKNESEHEGQGIYVKVSMDGAPYLRKIDLSCYKGYSELLKALEVMFKFSVGEYFERDGYKGSDFVPTYEDKDGDWMLIGDVPWEMFICTCKRLRIMKGSEAKGLGCGV
notes: IAA3 (SHY2), AUX/IAA transcriptional repressor, Arabidopsis; also called SHY2; source: E. coli Transetta (DE3), purified (amylose agarose)
Take B1: the binding result is on record as “binds”.

The values above are taken from publication PMC7924758, “IAA3-mediated repression of PIF proteins coordinates light and auxin signaling in Arabidopsis” (PLoS Genetics, 2021).
